Residue numbers refer to the chain shown, from its start. Values joined by “and” are separate entries in the source; they are usually repeats but may differ in a detail not shown here. Equal entries are not always repeated.
B1: Antibody 11 (SS6V11-E7) (antibody, V domains shown)
VH: QVQLQESGPGLVKPSETLSLTCTVSGGFIGPHYWSWVRQPPGKGLEWIGYIYISGSTNYNPSLKSRLTISVDMSKSQFSLTLSSATAADTAVYYCARGGGYLETGPFEYWGQGTLVTVSS
VL: DIVMTQSPLSLPVTPGEPASISCRSSQSLLQNNGYNYLAWYLQKPGQSPQLLIYLSSTRASGVPDRFSGSGSGTDFTLKISRVEAEDVGVYYCMQSLQIPGTFGQGTRLEIK
B2: Antibody 20 (SS6V20-F5) (antibody, V domains shown)
VH: QVQLQESGPGLVKPSETLSLTCTVSGGSIIGYYWSWIRQPPGKGLEWIGYIYFSANTNYNPSLKSRVTMSVDMSKKQFSLKLRSVTAADTAVYYCARGGGYLETGPLDFWGQGILVTVSS
VL: B1 VL with L30M, N32L, K44R, S56G, S81T, S96G
B3: Antibody 13 (SS6V13-F1) (antibody, V domains shown)
VH: QVQLQESGPGLVKPSETLSLTCSVSGVSILGSYWGWIRQPPGTGLQWIGYIYFSENTNYNPSLQSRVTMSLDTSKNLLSLKLSSVTAADTAVYYCARGGGYLETGPFDSWGQGTLVTVSS
VL: B1 VL with S28G, L30V, N32S, S56G, T58N, S96G, I99T

target: SARS-COV-2 Wuhan-hu-1 (ancestral) full-length spike (SARS-CoV-2); assay: cell-based or functional assay

Binder	pseudovirus neutralization NT50
B1	< 10 ng/ml and < 0.067 nM
B2	< 10 ng/ml and < 0.067 nM
B3	< 10 ng/ml and < 0.067 nM

target: SARS-COV-1 full-length spike (SARS-CoV); assay: cell-based or functional assay

Binder	pseudovirus neutralization NT50
B1	< 10 ng/ml and < 0.067 nM
B2	< 10 ng/ml and < 0.067 nM
B3	< 10 ng/ml and < 0.067 nM

target: WIV-1 full-length spike (SC1r-CoV WIV-1); assay: cell-based or functional assay

Binder	pseudovirus neutralization NT50
B1	< 10 ng/ml and < 0.067 nM
B2	< 10 ng/ml and < 0.067 nM
B3	< 10 ng/ml and < 0.067 nM
